Biological target: KIX domain (residues 586–672) of human CREB binding protein (CBP) (human, UniProt Q92793 586-672)
Test: NMR solution structure

KIX domain (residues 586–672) of human CREB binding protein (CBP), sequence (Q92793 586-672): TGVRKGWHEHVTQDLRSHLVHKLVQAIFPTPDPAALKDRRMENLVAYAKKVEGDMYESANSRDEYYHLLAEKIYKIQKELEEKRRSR

binding result: binds
Binder: DAGNILPSDIMDFVLKNTP (peptide, UniProt Q03164 2840-2858, looked up)

— article PMC3719477 (ACS Chemical Biology, 2013)
